Results from article PMC6075789, “Comparative proteomics of the two T. brucei PABPs suggests that PABP2 controls bulk mRNA” (PLoS Neglected Tropical Diseases, 2018).
Read-outs that look alike come from different tables or passages of the source.

B1: PABP1-4Ty1 (natural protein, T. brucei, UniProt Q38E63 1-566, looked up)
chain: MTIAAQGVPSGPSATKPLQVASLYVGDLDPAINEPQLVDIFKPYGTILNVRVCRDIITQRSLGYGYVNYDDVNSASKAMEELNFKRVGEKCIRIMWQQRDPALRYSGSGNIFVKNLKEEVDSRELSLIFKKFGEILSCKVMDDESGKSRGYGFVHFKDDDAAKAAIEKMNGDKEHADADKAALYVANFIRRNARLAALVANFTNVYIKQLLPTVDKDVIEKFFSKFGGITSAAICKDKNGRAFAFCNFEKHDDAVKAIEASHDQEVEGVTQPGEKLYVQRAQPRSERLIALRQKYMQCQSLGNNLYVRNFDAEFTEKDLNELFKEYGVIRSCRVMTDANGISRGFGFVSFENADQANAALREMNGRMLNGKPLVVNIAQRRDQRLTMLKLQLQQRLQMMMHHMHPPPFGMPGHPLQRRNARSGGRGNRPHPRQQQPQPQPEPQPPLATTVPPAAAHSVMFTAPSMGFSAVPRTPQASPAIAPDTPPLPPISAEDLQQMSVDEQRAALGDRLYIKVHELAPDHAPKITGMFLEMNPKEALALLSNPKLMHEKVTEALCVLKVHASSA
notes: also called PABP-Ty1; source: T. brucei procyclic Lister 427, expressed from the endogenous locus, in lysate of cryomilled cells

Experiments:
[1] = target: eIF4E4 eYFP fusion protein (T. brucei); experiment: co-IP; eYFP fusion of eIF4E4 or G1-IP2 precipitated from cryomilled powder in low salt buffer with anti-GFP nanobody LaG16-LaG2 on magnetic beads; co-precipitated PABP-4Ty1 detected by western blot with anti-Ty1 (BB2); enrichment against beads without antibody, two replicates
[2] = target: T1, G1-IP2 eYFP fusion protein (T. brucei, UniProt Q387L6 1-435); experiment: as above
T1 construct: The methods say N-terminal eYFP for all proteins but RBP23; the results print the label G1-IP2-eYFP; source: T. brucei procyclic Lister 427, expressed from the endogenous locus, in lysate of cryomilled cells; not shown: eYFP, N-terminal, kept
T1 sequence (looked up): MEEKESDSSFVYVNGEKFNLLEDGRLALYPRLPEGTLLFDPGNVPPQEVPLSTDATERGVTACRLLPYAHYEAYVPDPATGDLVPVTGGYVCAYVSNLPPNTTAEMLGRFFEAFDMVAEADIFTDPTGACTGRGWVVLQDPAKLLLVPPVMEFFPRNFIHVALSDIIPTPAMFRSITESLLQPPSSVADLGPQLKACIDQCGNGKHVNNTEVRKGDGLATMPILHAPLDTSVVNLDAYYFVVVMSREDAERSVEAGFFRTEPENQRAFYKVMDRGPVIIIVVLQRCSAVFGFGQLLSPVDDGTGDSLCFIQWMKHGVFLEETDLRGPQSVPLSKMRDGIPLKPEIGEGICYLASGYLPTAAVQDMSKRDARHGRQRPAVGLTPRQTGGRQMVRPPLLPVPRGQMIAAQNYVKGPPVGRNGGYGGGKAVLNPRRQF

| Molecule | enrichment ratio against control beads without antibody [1] [fold] | enrichment ratio against control beads without antibody [2] [fold] | enrichment ratio against control beads without antibody ([2]; partners not purified) [fold] |
| --- | --- | --- | --- |
| PABP2-4Ty1 (natural protein) | 3 | 19 |  |
| B1 | 64 |  | 4 |
